Results published in the DeepSol protein solubility set.

Assay: soluble on expression in E. coli; label from the status in PepcDB or PDB records

Sequence | soluble on expression in E. coli
MAVYTDITEDELRNFLTQYDVGSLTSYKGIAEGVENSNFLLHTTKDPLILTLYEKRVEKNDLPFFLGLMQHLAAKGLSCPLPLPRKDGELLGELSGRPAALISFLEGMWLRKPEAKHCREVGKALAAMHLASEGFEIKRPNALSVDGWKVLWDKSEERADEVEKGLREEIRPEIDYLAAHWPKDLPAGVIHADLFQDNVFFLGDELSGLIDFYFACNDLLAYDVSICLNAWCFEKDGAYNVTKGKALLEGYQSVRPLSEAELEALPLLSRGSALRFFLTRLYDWLTTPAGALVVKKDPLEYLRKLRFHRTIANVAEYGLAGE | soluble
MKAVGFLLLLTILTLAYAKKSGDVTELQIGVKYKPQKCDLQAHKGDKIKVHYRGKLTDGTVFDSSFERGDPIEFELGTGQVIPGWDQGLLGACVGEKRKLKIPSKLGYGDNGSPPKIPGGATLIFDTELVAVNGEPSSEAKSKNEL | soluble
MAHHHHHHMQTVPSFQKTTSFHCSKAGRVLYSFREASRISGTHLPIVSAVDSYTLDSVFSEEVRPSFKSFAVDPSDRYCAAILDQDIDSVIRLFSLSAGPYPDHGAFASPAVQEEQDSAMGADEEEMEQWSIEDDDYDTDDSTDSNDDEFEEDEDDDDDSYDEEDAEEEFEEWEEEDEEESSPGTGSGSDEQEGTQASSRHAN | soluble
GMAQRSILVGQIWHEGHSFNPILTREKDFLFLRGEAVLEEARASSTALSGIVKTAEALGYRCVPSISARARPGGAIEQKVFDNIVDEFVQAARMQDFDAICLDLHGATLAEHTLDTEGYLLSRLREVVGNDIMISLALDLHAYLTPQMVEQATIITSFRTTPHADIEETGVRAMTLLDSLSNETRPPRAIYSLIPFLTRGNDETWSGPLAEIGAAADRWRARSDVVDLSIFNVHPFLDVPGYGQVVLAYDNGSGAAIDACRDLSDMLWKARDEFQEQLMSVDKALEIARTSRQLLALGDQGDRVMGAGPGDSPEIARVALEHFPGLKVAVPVYDPQAVRTAREAGENATVRMAVGGAFTHSVAPLERDWTVRKLCRARFTNIGPYMAGTEADFGDAAVLTCDAVTVIVTTMAPNVHDPAFYEAVGVPLASQQAVVARAANHYKLSFADIARTITVDTPGLTAFKPHQFPFTQARPFYPLDIVQWSFAPLECNKVG | soluble
SLKRIDWNIQYLSLPPVIKHCKKCGKKTEFICSGMFRINAQRKYLDVWLIYKCSNCNSTWNMTIYTRVKPKSIEPKLLEAFHNNDKELAERYAVNLELIRKNGVELGYTKYKIIGEDINFRIPVELHIKSTYPSQLKVAALIREKLNLSQSSFESLITKGLIRGDTEINLKKCRLRTEVIVIIDSLDWSEVAFALAL | soluble
GKKQEPFEQVTIDIEEQHQGSVMEALGIRKGEVKDMIPDGKGRTRLEYVIPSRGLIGFRNEFMTMTSGTGLLYSSFSHYDDVKLGEIGQRKNGVLISNATGKALAYALFGLQERGKLMIEHGVDVYEGQI | not soluble
MFSYHELITIESVARLGSFSQAADELHKVPSAISYTIKSVEDRLTVVLFTRLHRRVELTAAGTYFVDQARKLLKDMEEIRFNTQRVANGWQQSVSVALDNVVRENSVNQLVRDFYATFPDIELQLTMEVFNGVWDALMTGRADIGIGATATIPIGGDFSYRPMGELAWDFIVSINHPLASFEHDIPNEELVKYPAICLEDTSQILPKRSTWLLDNQRRLIVPNWHSAEQCFIDGLGVGVIPNHRAKRLLETGQVISKKIEHHIAPSPCCLAWNNNNQSVAIQWLLDYLGDSDKLNSEWLKEF | not soluble
MGSRASTLLRDEELEEIKKETGFSHSQITRLYSRFTSLDKGENGTLSREDFQRIPELAINPLGDRIINAFFSEGEDQVNFRGFMRTLAHFRPIEDNEKSKDVNGPEPLNSRSNKLHFAFRLYDLDKDDKISRDELLQVLRMMVGVNISDEQLGSIADRTIQEADQDGDSAISFTEFVKVLEKVDVEQKMSIRFLHKLAAALEHHHHHH | soluble
SAEGEDVGWWRSWLQQSYQAVKERSTEALEFMKRDLTEFTQVVQHDTACTIAATASVVKEKLATEGSSGATEKVKKGLSDFLGVISDTFAPSPDKTIDCDVITLMGTPSGTAEPYDGTKARLYSLQSDPATYCNEPDGPPELFDAWLSEFCLEEKKGEISELLVGSPSIRALYTKMVPAAVSHSEFWHRYFYKVHQLEQEQARRDALKQRADQSISEEPGWEEEEEELEGIVPSPKEAKIPKETKTTTSPEDEPAPQSPCEETPVEPPAEATPSESSESISLVTQVANPAAAPEAPELPKDLSQKLFEASLEEQSLAEDEGETGPPPPPPSKPLTPAGRASGPEPRPPARVETLREEVPTDLRVFELNSDSGKSTPSNNGKKGSSTDISEDWEKDFDLDMTEEEVQMALSKVDASGELEDVEWEDWE | not soluble
GSHMTRETERFPAREFQRDLLDWFARERRDLPWRKDRDPYKVWVSEVMLQQTRVETVIPYFEQFIDRFPTLEALADADEDEVLKAWEGLGYYSRVRNLHAAVKEVKTRYGGKVPDDPDEFSRLKGVGPYTVGAVLSLAYGVPEPAVDGNVMRVLSRLFLVTDDIAKPSTRKRFEQIVREIMAYENPGAFNEALIELGALVCTPRRPSCLLCPVQAYCQAFAEGVAEELPVKMKKTAVKQVPLAVAVLADDEGRVLIRKRDSTGLLANLWEFPSCETDGADGKEKLEQMVGEQYGLQVELTEPIVSFEHAFSHLVWQLTVFPGRLVHGGPVEEPYRLAPEDELKAYAFPVSHQRVWREYKEWASGVRPPP | soluble
MIATGDALNLLSKMTFKRLITLLKVFVSYQYSKITGNVVHPSVPYSIAIEPTTSCNLRCPECPSGLRSFTRPTGMLNIAMFSKIIDELYQQISYLIFYFQGEPYLNTSFLEMVKYASSKGIYTATSTNAHYLTDENARKTVESGLDRLIISIDGTTQEVYEQYRIGGSLEKVLEGTKNILAWKKKLHASTPHVIFQFLVVKPNQHQLKEVKKMAKELGVGEVRFKTAQIHDYENGSPLIPDIDKYARYRKNADNTYSIKNSLLNHCWKMWHSCVITWDGKIVPCCFDKDAHLVMGELKTNTFKEIWNSAPYIQFRKSLLKSRSEIDMCKNCTEGTTVWA | not soluble
SNDYRVAVFGAGGVGKSSLVLRFVKGTFRESYIPTVEDTYRQVISCDKSICTLQITDTTGSHQFPAMQRLSISKGHAFILVYSITSRQSLEELKPIYEQICEIKGDVESIPIMLVGNKCDESPSREVQSSEAEALARTWKCAFMETSAKLNHNVKELFQELLNLEKRRTVSL | soluble
MKTENAKTNQTLVENSLNTQLSNWFLLYSKLHRFHWYVKGPHFFTLHEKFEELYDHAAETVDTIAERLLAIGGQPVATVKEYTEHASITDGGNETSASEMVQALVNDYKQISSESKFVIGLAEENQDNATADLFVGLIEEVEKQVWMLSSYLG | soluble
SMLSTEGREGFVVKVRGLPWSCSAEEVMRFFSDCKIQNGTSGVRFIYTREGRPSGEAFVELESEDEVKLALKKDRETMGHRYVEVFKSNSVEMDWVLKHTGPNSPDTANDGFVRLRGLPFGCSKEEIVQFFSGLEIVPNGMTLPVDFQGRSTGEAFVQFASQEIAEKALKKHKERIGHRYIEIFKSSRAEVRTHYDPPRKLMTMQRPGPYDRPGAGRGYNSIGRGAGFERMRRGAYGGGYGGYDDYGGYNDGYGFGSDRFGRDLNYCFSGMSDHRYGDGGSSFQSTTGHCVHMRGLPYRATENDIYNFFSPLNPMRVHIEIGPDGRVTGEADVEFATHEDAVAAMAKDKANMQHRYVELFLNSTAGTSGGAYDHSYVELFLNSTAGASGGAYGSQMMGGMGLSNQSSYGGPASQQLSGGYGGGYGGQSSMSGYDQVLQENSSDYQSNLA | not soluble
MSKLELLPAVDVRDGQAVRLVHGESGTETSYGSPLEAALAWQRSGAEWLHLVDLDAAFGTGDNRALIAEVAQAMDIKVELSGGIRDDDTLAAALATGCTRVNLGTAALETPEWVAKVIAEHGDKIAVGLDVRGTTLRGRGWTRDGGDLYETLDRLNKEGCARYVVTDIAKDGTLQGPNLELLKNVCAATDRPVVASGGVSSLDDLRAIAGLVPAGVEGAIVGKALYAKAFTLEEALEATSLEPG | soluble
QLRDFSSIIQTCSGNIQRISQATAQIKNLMSQLGTKQDSSKLQENLQQLQHSTNQLAKETNELLKELGSLPLPLSTSEQRQQRLQKERLMNDFSAALNNFQAVQRRVSEKEKESIAR | soluble
MSEKIRVLLYYKYVSIENAQEYAAKHLEFCKSIGLKGRILIADEGINGTVSGDYETTQKYMDWVHSDERFADLWFKIDEENQQAFRKMFVRYKKEIVHLGLEDNNFDSDINPLETTGEYLNPKQFKEALLDEDTVVLDTRNDYEYDLGHFRGAIRPDIRNFRELPQWVRDNKDKFMEKRVVVYCTGGVRCEKFSGWMVREGFKDVGQLHGGIATYGKDPEVQGELWDGAMYVFDDRISVPINHVNPTVISKDYFDGTPCERYVNCANPFCNKQIFASEENETKYVRGCSPECRAHERNRYVQENGLSRQEWAERLEAIGESLPEFVGALEHHHHHH | soluble
MGSDKIHHHHHHMTNEQDPKQNHLLSVLPEAEWARISPHLVRIDMPLGQVIYESGDRLHHVYFPTTSIVSLLYVMEDGSSAEIAIVGNEGLIGIALFMGGETTPNRAIVQSAGEAYRLDARILKQEFHRAGPVQRLLLRYTQALITQMAQTAVCNRHHSIDQQLCRWLLLSLDRLPSNELRMTQELIANMLGVRRSGVTEAALKLQDAGLIRYSHGHIEVLDRPGLEKRVCECYNVVKQEFDRLLPDLKAL | not soluble
MSLSRQIRYYGTGTQKAYDELKQVLPEARILRMDVDTTKRKGAHEKILTKFGRHEADILLGTQMIAKGLDFPNVTLVGVLNADTSLNLPDFRSSERTFQLLTQVAGRAGRANKPGEVLIQTYNPNHYAIQLAREQDYEAFYRYEMRIRKALSYPPYYFTVGLTLSHKDEQEVIKKSYEIVTLIKEGLTDKIKILGPTPKPVARTHNLYHYQIIIKYRFEDQLEIVLNHILDLTQAKENKKLRLIIDHEPQSEGHHHHHH | not soluble
MGSDKIHHHHHHMSRVGIPRSLFYYYYYPLWKSFFSDLGVEILTSAPSNRHTVERGIELAVDETCFPIKVYLGHVAELCREELDYLFIPRLVSVEARSYICPKFMGLPDIVRALIKETPPLIDITVDLSRDEKCFKKDIIRVGRLFTRQASRIQLAYQHGCEELRLCRSLASQGFTMEEAIKIWEGGAMEAEPETDLNIGVLGHGYSLYDERISMNLVKRLRAMNCKVLLPEHLGSEVVEAEAATVPKRVFWTLGRKMLGSALHLSQREDVDGIIYLACFGCGPDSLIGEIIERKVRDCKPFILLTVDEHSGEAGIITRLEAFCDMLRRRRNCGSESKLSPYGVSLHSFENTV | not soluble
PHPADPRLLIGQHVGAGPMVLASPWPRIVAPADFDTRFQGEARDLVLAHERVHLARGDAQINALVVALQCLCWFNPLVHLGAHRLRLDQEMACDEAVLARRPEARRLYAETLLDTLLAPR | not soluble
MGSDKIHHHHHHMSAPPLCVTVCGGGRTGHLNAILFAQRPGVRVKLLTRNHHIAARQDAVLTGLLPDGATLTASAGMVTDDPAVALRDADIVIITVPAHARPSLLREIVAHLPEGKAVYVGAIPGFCGFDWLAGALLAQRPNAVIWGMKDVPHTAFALDPGVSVRMGGVKQRLYVGCHAREQRAARQALLSHLNRLYDASVELLDSYLEITLTPGNPIMHSAVIYGLIGPYGQWHGRALPTPLCWWTDCPELSAYFLERADEESQRLCQAVARRLGVDLSSVKPLRQEIVDAYGDQIQDPSTMLSVLRTNRAYADIEAPLVPTSGGYLVDTSSRAFHEDVAYGLATLVEMARRLGVDTPHLREIFEWNVTYMGGLRGSALDYFPEFWPR | not soluble
